Legend:
[1] = biological target: T1, TCRab on primary human T cells (human, UniProt P01848 1-140; P01850 1-176); assay: competition flow cytometry on primary human T cells, competitor T017000624 at EC30 (2E-08 M)
T1 construct: whole, on cells; T cells isolated from buffy coats; also called Primary hu T cells; human TCR
T1 TCR alpha (looked up): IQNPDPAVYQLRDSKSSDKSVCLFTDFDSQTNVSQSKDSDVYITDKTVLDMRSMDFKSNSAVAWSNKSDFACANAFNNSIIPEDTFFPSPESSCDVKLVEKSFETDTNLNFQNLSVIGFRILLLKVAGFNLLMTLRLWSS
T1 TCR beta (looked up): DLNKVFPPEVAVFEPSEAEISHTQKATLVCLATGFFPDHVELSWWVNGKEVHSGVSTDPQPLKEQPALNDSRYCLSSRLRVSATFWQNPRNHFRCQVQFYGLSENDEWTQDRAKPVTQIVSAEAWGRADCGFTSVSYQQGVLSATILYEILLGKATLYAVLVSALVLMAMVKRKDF
Description: T cells (human T cells obtained as described in Example 3 and cyno T cells purchased from LPT laboratory, Germany) were thawed and counted on the day of the assay and diluted to a concentration of 1E+06 cells/mL, before adding 75 μL to the wells of a V-bottom 96-well plate (Greiner, cat no 651180). Cells were washed once with cold FACS buffer, before adding 25 μL Nb and 25 μL competitor to the wells. […] Cells were resuspended and plates were incubated at 4° C. for 90 minutes, after which plates were washed twice in cold FACS buffer. Cells were resuspended in 50 μl 1/1000 diluted Monoclonal ANTI-FLAG® M2 (Sigma Aldrich, cat no F1804) in FACS buffer and incubated at 4° C. for 30 minutes. Plates were washed twice in cold FACS buffer. […] Plates were washed twice in cold FACS buffer. Cells were resuspended in 55 μL 1/1000 diluted Propidium Iodide (Sigma-Aldrich, cat no P4170) in FACS buffer before acquiring data on the MACSQuant X (Miltenyi biotec).

[2] = biological target: mouse serum albumin (DivBioScience cat no IMSA) (mouse, UniProt P07724 25-608); assay: SPR ProteOn XPR36, serum albumin immobilized by amine coupling, 1:1 model
Sequence of mouse serum albumin (DivBioScience cat no IMSA) (P07724 25-608 limits assumed): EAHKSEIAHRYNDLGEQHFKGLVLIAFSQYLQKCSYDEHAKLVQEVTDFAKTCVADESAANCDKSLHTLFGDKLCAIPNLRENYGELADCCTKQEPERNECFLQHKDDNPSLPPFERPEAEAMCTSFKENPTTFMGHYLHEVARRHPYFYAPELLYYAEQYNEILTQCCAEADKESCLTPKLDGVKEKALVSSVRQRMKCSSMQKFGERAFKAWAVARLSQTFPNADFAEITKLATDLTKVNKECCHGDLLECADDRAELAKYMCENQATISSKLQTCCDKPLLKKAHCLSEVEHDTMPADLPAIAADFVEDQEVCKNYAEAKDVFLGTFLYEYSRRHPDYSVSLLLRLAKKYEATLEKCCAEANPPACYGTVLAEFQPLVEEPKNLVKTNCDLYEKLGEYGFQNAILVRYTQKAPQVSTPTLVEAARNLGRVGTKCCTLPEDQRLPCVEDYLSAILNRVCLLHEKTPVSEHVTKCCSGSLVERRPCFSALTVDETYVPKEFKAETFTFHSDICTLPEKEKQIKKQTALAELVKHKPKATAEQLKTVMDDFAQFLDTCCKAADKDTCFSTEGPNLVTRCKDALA
Description: (§1) Serum albumin proteins were immobilized on a GLC Sensor Chip (Biorad) via amine coupling, using EDC and NHS chemistry (running buffer: HBS-EP+, pH 7.4). Purified ISVDs were injected for 2 minutes (flow rate 45 μL/min) at different concentrations (between 0.24 nM and 500 nM) and dissociation was followed for 900 s. Regeneration was performed by injecting 10 mM Glycine-HCl (pH 1.5) for 47 seconds (flow rate 100 μL/min). Data was double referenced by subtracting a reference ligand lane and a blank buffer injection. Processed sensorgrams were analyzed based on the 1:1 interaction model (Langmuir binding model) using ProteOn Manager 3.1.0 (Version 3.1.0.6) software.

[3] = biological target: T2, human serum albumin (Sigma cat no A8763) (human, UniProt P02768 25-609); assay: as above
T2 construct: also called HSA
Description: as §1

[4] = biological target: T3, cyno serum albumin (in house produced from animal tissue) (cynomolgus); assay: as above
T3 construct: also called cynomolgus serum albumin
T3 sequence (A2V9Z4 25-608): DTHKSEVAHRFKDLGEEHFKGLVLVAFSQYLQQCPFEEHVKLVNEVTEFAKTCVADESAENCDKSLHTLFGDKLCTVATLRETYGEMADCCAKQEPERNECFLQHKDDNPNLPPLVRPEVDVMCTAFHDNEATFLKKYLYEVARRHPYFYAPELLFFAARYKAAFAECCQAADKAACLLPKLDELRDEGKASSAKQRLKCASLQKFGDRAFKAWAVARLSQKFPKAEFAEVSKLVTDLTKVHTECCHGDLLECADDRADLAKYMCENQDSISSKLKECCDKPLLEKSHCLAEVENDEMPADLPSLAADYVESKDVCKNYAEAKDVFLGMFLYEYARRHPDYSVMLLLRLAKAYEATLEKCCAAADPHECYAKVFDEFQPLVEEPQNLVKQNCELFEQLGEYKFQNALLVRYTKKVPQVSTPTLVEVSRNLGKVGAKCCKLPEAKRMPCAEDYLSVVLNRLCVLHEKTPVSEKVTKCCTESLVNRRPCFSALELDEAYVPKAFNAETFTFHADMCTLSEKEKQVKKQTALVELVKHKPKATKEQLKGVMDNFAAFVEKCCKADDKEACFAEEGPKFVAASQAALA
Description: as §1

[5] = biological target: T4, human GPC3 expressed on CHO Flp-In cells (human, UniProt P51654 25-554); assay: flow cytometry on cells expressing GPC3; upper end tied by Table 21 to CHO human GPC3
T4 construct: On cells; Q25-R358, S359-H580; also called hGPC3 CHO; CHO huGPC3

[6] = biological target: T5, cyno Glypican-3 delta-GPI-HIS, in-house produced (cynomolgus); assay: SPR ProteOn XPR36, GPC3 captured on anti-His antibody, 1:1 model
T5 construct: range 3-559; also called cyno GPC3; cyGPC3
Description: (§2) Recombinant GPC3 proteins were captured on a GLC Sensor Chip (Biorad) immobilized with THE anti-His antibody (Genscript, cat no ABIN387699) via amine coupling, using EDC and NHS chemistry (running buffer: HBS-EP+, pH7.4). Purified ISVDs were injected for 2 minutes (flow rate 45 μL/min) at different concentrations (between 0.3 nM and 1000 nM) and dissociation was followed for 900 s. Regeneration was performed by injecting 10 mM Glycine-HCl (pH 1.5) for 1 minute (flow rate 45 μL/min). Data was double referenced by subtracting a reference ligand lane and a blank buffer injection. Processed sensorgrams were analyzed based on the 1:1 interaction model (Langmuir binding model) using ProteOn Manager 3.1.0 (Version 3.1.0.6) software.

[7] = biological target: T6, recombinant human Glypican-3 (R&D Systems, cat nr. 2119-GP) (human, UniProt P51654 25-559); assay: as above
T6 construct: Bought protein; also called human GPC3; hGPC3
Description: as §2

B1: A022600424 (other)
chain: DVQLVESGGGVVQPGGSLRLSCVASGYVHKINFYGWYRQAPGKEREKVAHISIGDQTDYADSAKGRFTISRDESKNTVYLQMNSLRPEDTAAYYCRALSRIWPYDYWGQGTLVTVSSGGGGSEVQLVESGGGVVQPGGSLRLSCAASGFTFSSFAMTWVRRPPGKGLEWVATITNKGVTSYADSVKGRFTISRDNAKNTLYLQMNSLRPEDTALYICANARRTGPRAPTDIGSYRGQGTLVTVSSGGGGSGGGSEVQLVESGGGVVQPGGSLRLSCAASGSIFRSVFSSSTMEWYRQAPGKKRELVARIAPGEGTYYGALYADSVKGRFTISRDNAKNTVYLQMNSLRPEDTALYYCASGVAWGQGTLVTVSSGGGGSGGGSEVQLVESGGGVVQPGGSLRLSCAASGFTFRSFGMSWVRQAPGKGPEWVSSISGSGSDTLYADSVKGRFTISRDNSKNTLYLQMNSLRPEDTALYYCTIGGSLSRSSQGTLVTVSSA
notes: Trispecific tetravalent ISVD (VHH) T-cell engager: anti-TCR, two anti-GPC3 (biparatopic), anti-albumin; also called TCE01-5GS-A022600351-9GS-A022600314-9GS-ALB23002-A
Which results are given for B1?
IC50 [1]: 170 nM; Kd [2]: 6.9 nM; Kd [3]: 0.83 nM; Kd [4]: 0.33 nM; EC50 [5]: 1 to 2 nM; Kd [6]: < 0.0059 nM; Kd [7]: < 0.0056 nM

— US20240343823A1 (Ablynx, published 2024)
